Assay results published in publication PMC5593927, “Overlapping and Specific Functions of the Hsp104 N Domain Define Its Role in Protein Disaggregation” (Scientific Reports, 2017).
Where no end group is shown, it is not given here. The star is where a group is joined. Biotin = O=C1N[C@H]2[C@H](CS[C@H]2CCCCC(=O)*)N1; Ahx = NCCCCCC(=O)O

B1: Hsp104ND1, N-terminal fragment of Saccharomyces cerevisiae Hsp104 (residues 1-360) (domain or fragment, S. cerevisiae, UniProt P31539 1-360, looked up)
chain: MNDQTQFTERALTILTLAQKLASDHQHPQLQPIHILAAFIETPEDGSVPYLQNLIEKGRYDYDLFKKVVNRNLVRIPQQQPAPAEITPSYALGKVLQDAAKIQKQQKDSFIAQDHILFALFNDSSIQQIFKEAQVDIEAIKQQALELRGNTRIDSRGADTNTPLEYLSKYAIDMTEQARQGKLDPVIGREEEIRSTIRVLARRIKSNPCLIGEPGIGKTAIIEGVAQRIIDDDVPTILQGAKLFSLDLAALTAGAKYKGDFEERFKGVLKEIEESKTLIVLFIDEIHMLMGNGKDDAANILKPALSRGQLKVIGATTNNEYRSIVEKDGAFERRFQKIEVAEPSVRQTVAILRGLQPKYE
notes: Hsp104, S. cerevisiae, residues 1-360: N domain and extended D1-large domain with the first helix of the D1-small domain (C1 helix, residues 343-351); residues 4 to 352 traced; The general purification text describes Ni-NTA and TEV cleavage of an N-terminal His6 tag; also called N-terminal fragment of yeast Hsp104
B2: Biotinylated C1 peptide (Biotin-Ahx-GEVAEPSVRQTVAILRGLQ) (peptide)
peptide: {Biotin-Ahx}-GEVAEPSVRQTVAILRGLQ
notes: Immobilised on streptavidin biosensors through the biotin; source: synthetic peptide (AAPPTec LLC)

Columns and labels:
[1] = biological target: the molecule itself; assay: crystal structure; Hsp104ND1 crystals grown at 4 °C, space group P6_(5)22, one molecule per asymmetric unit, nucleotide-free; N domain of one molecule contacts the C1 helix of the neighboring molecule; 2.8 Å
[2] = biological target: T1, Hsp104N, isolated N domain of S. cerevisiae Hsp104 (first 165 residues) (S. cerevisiae, UniProt P31539 1-165); assay: BLI; Octet RED96; biotinylated C1 peptide immobilised on streptavidin biosensors at 0.5 µM; Hsp104N 4.3 to 137 µM in solution; 50 mM Tris-HCl pH 8.5, 20 mM ammonium citrate, 10% PEG4000, 0.1 mg/ml BSA; 25 °C; 10 min association, 10 min dissociation; equilibrium shifts from two independent measurements; details: both partners purified
T1 construct: Hsp104, S. cerevisiae, isolated N domain consisting of the first 165 residues, cloned into pProEX HTb; Tag cleavage by TEV is told in the general purification paragraph, not for Hsp104N by name; also called His6-Hsp104N; source: E. coli BL21-CodonPlus (DE3)-RIL, purified (Ni-NTA, anion exchange); not shown: His6, N-terminal, cleaved

Row | Binder | binding result [1] | Kd [2]
1 | B1 | binds | 
2 | B2 |  | 14 ± 1.7 µM
